{
  "source": "patent US8236764",
  "tested_on": "Human FV isolated from plasma",
  "sequence (chain, as listed by the source)": "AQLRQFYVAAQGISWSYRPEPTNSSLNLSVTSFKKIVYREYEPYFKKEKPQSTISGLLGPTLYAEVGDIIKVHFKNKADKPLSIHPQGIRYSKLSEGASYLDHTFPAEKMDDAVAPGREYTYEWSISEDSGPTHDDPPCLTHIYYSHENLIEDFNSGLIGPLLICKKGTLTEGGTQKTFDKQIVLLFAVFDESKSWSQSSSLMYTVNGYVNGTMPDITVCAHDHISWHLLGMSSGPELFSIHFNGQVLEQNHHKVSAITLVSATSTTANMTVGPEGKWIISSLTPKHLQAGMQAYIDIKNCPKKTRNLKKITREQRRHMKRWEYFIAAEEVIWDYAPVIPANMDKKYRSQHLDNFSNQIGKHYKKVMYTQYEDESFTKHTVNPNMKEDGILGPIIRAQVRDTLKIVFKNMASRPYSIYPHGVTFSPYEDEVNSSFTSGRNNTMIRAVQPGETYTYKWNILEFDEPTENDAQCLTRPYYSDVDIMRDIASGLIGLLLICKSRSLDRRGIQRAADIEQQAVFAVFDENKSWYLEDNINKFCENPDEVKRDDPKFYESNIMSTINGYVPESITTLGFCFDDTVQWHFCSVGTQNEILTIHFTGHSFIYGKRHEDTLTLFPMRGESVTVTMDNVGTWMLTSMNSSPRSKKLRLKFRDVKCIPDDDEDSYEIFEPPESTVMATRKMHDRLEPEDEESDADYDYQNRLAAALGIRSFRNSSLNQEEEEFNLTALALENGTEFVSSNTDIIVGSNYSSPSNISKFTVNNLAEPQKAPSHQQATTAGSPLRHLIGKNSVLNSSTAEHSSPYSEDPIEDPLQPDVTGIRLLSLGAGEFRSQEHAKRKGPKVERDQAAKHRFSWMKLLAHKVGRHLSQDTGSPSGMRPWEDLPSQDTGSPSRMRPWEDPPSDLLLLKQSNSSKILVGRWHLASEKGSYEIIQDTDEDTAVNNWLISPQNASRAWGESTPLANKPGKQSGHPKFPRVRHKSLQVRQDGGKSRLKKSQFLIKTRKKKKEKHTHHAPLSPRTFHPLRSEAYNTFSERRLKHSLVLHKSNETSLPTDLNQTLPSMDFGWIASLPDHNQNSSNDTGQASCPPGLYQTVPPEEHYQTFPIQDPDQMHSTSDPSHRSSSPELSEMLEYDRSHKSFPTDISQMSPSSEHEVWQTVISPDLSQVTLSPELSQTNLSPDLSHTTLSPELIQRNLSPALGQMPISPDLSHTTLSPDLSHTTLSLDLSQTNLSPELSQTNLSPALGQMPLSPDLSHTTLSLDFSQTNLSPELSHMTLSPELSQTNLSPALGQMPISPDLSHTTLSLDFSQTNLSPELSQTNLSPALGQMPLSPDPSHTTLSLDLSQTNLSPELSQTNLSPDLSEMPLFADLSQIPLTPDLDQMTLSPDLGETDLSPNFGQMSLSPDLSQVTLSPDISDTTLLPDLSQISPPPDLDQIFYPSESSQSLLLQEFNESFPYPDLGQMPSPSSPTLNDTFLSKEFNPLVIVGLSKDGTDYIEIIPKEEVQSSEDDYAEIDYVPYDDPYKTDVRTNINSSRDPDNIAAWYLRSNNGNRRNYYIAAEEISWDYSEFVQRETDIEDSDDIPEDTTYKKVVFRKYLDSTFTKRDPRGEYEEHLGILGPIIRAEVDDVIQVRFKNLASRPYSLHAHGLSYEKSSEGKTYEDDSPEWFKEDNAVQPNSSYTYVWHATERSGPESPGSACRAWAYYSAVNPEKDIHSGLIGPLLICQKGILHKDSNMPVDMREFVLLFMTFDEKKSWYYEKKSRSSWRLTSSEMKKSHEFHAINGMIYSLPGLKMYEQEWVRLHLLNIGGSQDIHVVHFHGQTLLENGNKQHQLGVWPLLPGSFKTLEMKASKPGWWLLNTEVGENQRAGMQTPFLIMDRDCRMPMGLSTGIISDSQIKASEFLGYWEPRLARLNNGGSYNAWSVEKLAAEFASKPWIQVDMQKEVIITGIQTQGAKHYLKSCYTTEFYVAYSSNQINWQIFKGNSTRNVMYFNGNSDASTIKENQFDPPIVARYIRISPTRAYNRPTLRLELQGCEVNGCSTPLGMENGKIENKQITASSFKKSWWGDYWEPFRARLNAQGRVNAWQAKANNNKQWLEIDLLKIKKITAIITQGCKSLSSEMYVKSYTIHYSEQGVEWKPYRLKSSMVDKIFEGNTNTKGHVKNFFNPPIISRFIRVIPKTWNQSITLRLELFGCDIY",
  "data": [
    {"substance": "human thrombin", "values": [
      {"measurement": "activation of FV (cofactor activity by PT-based assay using FV-deficient plasma; cleavage by SDS-PAGE)", "value": "murine thrombin activates human FV in a similar fashion to human thrombin"}
    ]},
    {"substance": "murine thrombin", "values": [
      {"measurement": "activation of FV (cofactor activity by PT-based assay using FV-deficient plasma; cleavage by SDS-PAGE)", "value": "murine thrombin activates human FV in a similar fashion to human thrombin"}
    ]}
  ]
}
